According to patent publication US20240117018A1:

How the values were obtained:
Experiment in all cases: cell-based or functional assay
[1] = target: HIV-1 Env of pseudovirus 6545.v4.c1 (HIV-1)
[2] = target: HIV-1 Env of pseudovirus R2184.c04 (HIV-1)
[3] = target: HIV-1 Env of pseudovirus 211-9 (HIV-1)
[4] = target: HIV-1 Env of pseudovirus 3016.v5.c45 (HIV-1)
[5] = target: HIV-1 Env of pseudovirus A07412M1.vrc12 (HIV-1)
[6] = target: HIV-1 Env of pseudovirus R1166.c01 (HIV-1)
[7] = target: HIV-1 Env of pseudovirus 6480.v4.c25 (HIV-1)
[8] = target: HIV-1 Env of pseudovirus 0815.v3.c3 (HIV-1)
[9] = target: HIV-1 Env of pseudovirus 6952.v1.c20 (HIV-1)
[10] = target: HIV-1 Env of pseudovirus 620345.c01 (HIV-1)
[11] = target: HIV-1 Env of pseudovirus 235-47 (HIV-1)
[12] = target: HIV-1 Env of pseudovirus P1981_C5_3 (HIV-1)
[13] = target: HIV-1 Env of pseudovirus X2131_C1_B5 (HIV-1)
[14] = target: HIV-1 Env of pseudovirus T257-31 (HIV-1)
[15] = target: HIV-1 Env of pseudovirus R3265.c06 (HIV-1)
[16] = target: HIV-1 Env of pseudovirus 263-8 (HIV-1)
[17] = target: HIV-1 Env of pseudovirus 231966.c02 (HIV-1)
[18] = target: HIV-1 Env of pseudovirus 6041.v3.c23 (HIV-1)
[19] = target: HIV-1 Env of pseudovirus 928-28 (HIV-1)
[20] = target: HIV-1 Env of pseudovirus 3301.v1.c24 (HIV-1)
[21] = target: HIV-1 Env of pseudovirus X1254_c3 (HIV-1)
[22] = target: HIV-1 Env of pseudovirus C4118.c09 (HIV-1)
[23] = target: HIV-1 Env of pseudovirus 3103.v3.c10 (HIV-1)
[24] = target: HIV-1 Env of pseudovirus 231965.c01 (HIV-1)
[25] = target: HIV-1 Env of pseudovirus P0402_c2_11 (HIV-1)
[26] = target: HIV-1 Env of pseudovirus BJOX015000.11.5 (HIV-1)
[27] = target: HIV-1 Env of pseudovirus T255-34 (HIV-1)
[28] = target: HIV-1 Env of pseudovirus T278-50 (HIV-1)
[29] = target: HIV-1 Env of pseudovirus BJOX028000.10.3 (HIV-1)
[30] = target: HIV-1 Env of pseudovirus 191084 B7-19 (HIV-1)
[31] = target: HIV-1 Env of pseudovirus 6540.v4.c1 (HIV-1)
[32] = target: HIV-1 Env of pseudovirus 9004SS_A3_4 (HIV-1)
[33] = target: HIV-1 Env of pseudovirus C3347.c11 (HIV-1)
[34] = target: HIV-1 Env of pseudovirus 191955_A11 (HIV-1)
[35] = target: HIV-1 Env of pseudovirus BJOX025000.01.1 (HIV-1)
[36] = target: HIV-1 Env of pseudovirus BJOX009000.02.4 (HIV-1)

## N49P7 (antibody)
[1]
  IC50 (neutralisation, TZM.bl cells): 2 µg/mL
  IC80 (neutralisation, TZM.bl cells): 14.7 µg/mL
  MPI: 96
[2]
  IC50: 0.011 µg/mL
  IC80: 0.031 µg/mL
  MPI: 100
[3]
  IC50: 0.22 µg/mL
  IC80: 0.767 µg/mL
  MPI: 100
[4]
  IC50 (neutralisation, TZM.bl cells): 0.221 µg/mL
  IC80 (neutralisation, TZM.bl cells): 1.04 µg/mL
  MPI: 100
[5]
  IC50 (neutralisation, TZM.bl cells): 0.108 µg/mL
  IC80 (neutralisation, TZM.bl cells): 0.645 µg/mL
  MPI: 100
[6]
  IC50: 0.092 µg/mL
  IC80: 0.313 µg/mL
  MPI: 100
[7]
  IC50 (neutralisation, TZM.bl cells): 0.031 µg/mL
  IC80 (neutralisation, TZM.bl cells): 0.113 µg/mL
  MPI: 100
[8]
  IC50 (neutralisation, TZM.bl cells): 0.016 µg/mL
  IC80 (neutralisation, TZM.bl cells): 0.053 µg/mL
  MPI: 100
[9]
  IC50 (neutralisation, TZM.bl cells): 18.4 µg/mL
  IC80 (neutralisation, TZM.bl cells): 38.9 µg/mL
  MPI: 91
[10]
  IC50: 23.2 µg/mL
  IC80: 47.9 µg/mL
  MPI: 82
[11]
  IC50: 0.045 µg/mL
  IC80: 0.3 µg/mL
  MPI: 99
[12]
  IC50 (neutralisation, TZM.bl cells): 0.113 µg/mL
  IC80 (neutralisation, TZM.bl cells): 0.274 µg/mL
  MPI: 100
[13]
  IC50 (neutralisation, TZM.bl cells): 0.081 µg/mL
  IC80 (neutralisation, TZM.bl cells): 0.273 µg/mL
  MPI: 100
[14]
  IC50: 0.158 µg/mL
  IC80: 0.619 µg/mL
  MPI: 100
[15]
  IC50: 0.048 µg/mL
  IC80: 0.282 µg/mL
  MPI: 100
[16]
  IC50: 0.056 µg/mL
  IC80: 0.201 µg/mL
  MPI: 100
[17]
  IC50 (neutralisation, TZM.bl cells): 0.102 µg/mL
  IC80 (neutralisation, TZM.bl cells): 0.43 µg/mL
  MPI: 100
[18]
  IC50 (neutralisation, TZM.bl cells): 0.047 µg/mL
  IC80 (neutralisation, TZM.bl cells): 0.222 µg/mL
  MPI: 100
[19]
  IC50: 0.167 µg/mL
  IC80: 0.579 µg/mL
  MPI: 100
[20]
  IC50 (neutralisation, TZM.bl cells): 0.025 µg/mL
  IC80 (neutralisation, TZM.bl cells): 0.069 µg/mL
  MPI: 100
[21]
  IC50: 2.97 µg/mL
  IC80: 13.6 µg/mL
  MPI: 100
[22]
  IC50: 0.043 µg/mL
  IC80: 0.147 µg/mL
  MPI: 100
[23]
  IC50 (neutralisation, TZM.bl cells): 0.158 µg/mL
  IC80 (neutralisation, TZM.bl cells): 0.509 µg/mL
  MPI: 100
[24]
  IC50 (neutralisation, TZM.bl cells): 0.054 µg/mL
  IC80 (neutralisation, TZM.bl cells): 0.193 µg/mL
  MPI: 100
[25]
  IC50: 0.014 µg/mL
  IC80: 0.061 µg/mL
  MPI: 100
[26]
  IC50: 0.036 µg/mL
  IC80: 0.157 µg/mL
  MPI: 100
[27]
  IC50: 0.053 µg/mL
  IC80: 0.262 µg/mL
  MPI: 100
[28]
  IC50: 22.3 µg/mL
  IC80: > 50 µg/mL
  MPI: 75
[29]
  IC50: 0.02 µg/mL
  IC80: 0.123 µg/mL
  MPI: 100
[30]
  IC50: 0.047 µg/mL
  IC80: 0.142 µg/mL
  MPI: 100
[31]
  IC50 (neutralisation, TZM.bl cells): 11.7 µg/mL
  IC80 (neutralisation, TZM.bl cells): 33.2 µg/mL
  MPI: 92
[32]
  IC50: 0.125 µg/mL
  IC80: 0.39 µg/mL
  MPI: 100
[33]
  IC50: 0.024 µg/mL
  IC80: 0.067 µg/mL
  MPI: 100
[34]
  IC50: 1.81 µg/mL
  IC80: 8.87 µg/mL
  MPI: 99
[35]
  IC50: 0.038 µg/mL
  IC80: 0.236 µg/mL
  MPI: 100
[36]
  IC50: 0.113 µg/mL
  IC80: 0.506 µg/mL
  MPI: 100

## PG16 (antibody)
[1]
  IC50 neutralization (TZM.bl): 0.044 µg/mL
  IC80 neutralization (TZM.bl): 1.56 µg/mL
[2]
  IC50 neutralization (TZM.bl): 0.67 µg/mL
  IC80 neutralization (TZM.bl): > 50 µg/mL
[3]
  IC50 neutralization (TZM.bl): 0.029 µg/mL
  IC80 neutralization (TZM.bl): 0.144 µg/mL
[4]
  IC50 neutralization (TZM.bl): > 50 µg/mL
  IC80 neutralization (TZM.bl): > 50 µg/mL
[5]
  IC50 neutralization (TZM.bl): 0.343 µg/mL
  IC80 neutralization (TZM.bl): > 50 µg/mL
[6]
  IC50 neutralization (TZM.bl): 0.28 µg/mL
  IC80 neutralization (TZM.bl): 4.38 µg/mL
[7]
  IC50 neutralization (TZM.bl): > 50 µg/mL
  IC80 neutralization (TZM.bl): > 50 µg/mL
[8]
  IC50 neutralization (TZM.bl): > 50 µg/mL
  IC80 neutralization (TZM.bl): > 50 µg/mL
[9]
  IC50 neutralization (TZM.bl): 21.9 µg/mL
  IC80 neutralization (TZM.bl): > 50 µg/mL
[10]
  IC50 neutralization (TZM.bl): > 50 µg/mL
  IC80 neutralization (TZM.bl): > 50 µg/mL
[11]
  IC50 neutralization (TZM.bl): 0.092 µg/mL
  IC80 neutralization (TZM.bl): 4.51 µg/mL
[12]
  IC50 neutralization (TZM.bl): 0.376 µg/mL
  IC80 neutralization (TZM.bl): > 50 µg/mL
[13]
  IC50 neutralization (TZM.bl): 0.024 µg/mL
  IC80 neutralization (TZM.bl): 0.139 µg/mL
[15]
  IC50 neutralization (TZM.bl): 0.016 µg/mL
  IC80 neutralization (TZM.bl): 0.146 µg/mL
[17]
  IC50 neutralization (TZM.bl): 0.007 µg/mL
  IC80 neutralization (TZM.bl): 0.031 µg/mL
[18]
  IC50 neutralization (TZM.bl): 0.048 µg/mL
  IC80 neutralization (TZM.bl): 0.256 µg/mL
[20]
  IC50 neutralization (TZM.bl): 0.02 µg/mL
  IC80 neutralization (TZM.bl): 0.087 µg/mL
[21]
  IC50 neutralization (TZM.bl): 0.023 µg/mL
  IC80 neutralization (TZM.bl): 0.218 µg/mL
[22]
  IC50 neutralization (TZM.bl): 0.022 µg/mL
  IC80 neutralization (TZM.bl): 0.143 µg/mL
[23]
  IC50 neutralization (TZM.bl): 25.4 µg/mL
  IC80 neutralization (TZM.bl): > 50 µg/mL
[24]
  IC50 neutralization (TZM.bl): 1.44 µg/mL
  IC80 neutralization (TZM.bl): > 50 µg/mL
[25]
  IC50 neutralization (TZM.bl): 0.025 µg/mL
  IC80 neutralization (TZM.bl): 0.411 µg/mL
[26]
  IC50 neutralization (TZM.bl): 3.13 µg/mL
  IC80 neutralization (TZM.bl): > 50 µg/mL
[27]
  IC50 neutralization (TZM.bl): 0.024 µg/mL
  IC80 neutralization (TZM.bl): 0.125 µg/mL
[28]
  IC50 neutralization (TZM.bl): 0.227 µg/mL
  IC80 neutralization (TZM.bl): 18.6 µg/mL
[29]
  IC50 neutralization (TZM.bl): > 50 µg/mL
  IC80 neutralization (TZM.bl): > 50 µg/mL
[31]
  IC50 neutralization (TZM.bl): 0.035 µg/mL
  IC80 neutralization (TZM.bl): 0.42 µg/mL
[33]
  IC50 neutralization (TZM.bl): 0.008 µg/mL
  IC80 neutralization (TZM.bl): 0.045 µg/mL
[35]
  IC50 neutralization (TZM.bl): 0.071 µg/mL
  IC80 neutralization (TZM.bl): > 50 µg/mL
[36]
  IC50 neutralization (TZM.bl): 1.19 µg/mL
  IC80 neutralization (TZM.bl): 22.1 µg/mL
